In patent publication US7429481:
Where two headings read alike, the source gives them in different places.

Key:
[1] = biological target: human Her2/neu receptor (human) (UniProt P04626); experiment: flow cytometry, SKBR3 cells stained with Herceptin
[2] = biological target: human Her2/neu receptor (human) (UniProt P04626)

Substance: Herceptin, the humanized form of 4D5 (antibody)
- mean fluorescence [1]: 401
- mean fluorescence [2]: 186
